This is an account of results in the supplement of paper PMC7125110.

± gives the standard error. For some assays here: Fewer inactive variants are shown than the library holds.

First the molecules themselves.
B1: glmS ribozyme (parent)
chain: AUAAAAGCGCCAGAACUACAGAAAUGUAGUUGACGAGGAGGAGGUUUAUCGAAUUUUCGGCGGAUGCCUCCAAA

Holding throughout (settings): with glucosamine-6-phosphate
The variants in data set [1] derive from B1. The data set is described as follows: kcat; higher = faster cleavage; RNA array. The method in brief:
(§1)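 Sequenced MiSeq chips were the platform: E. coli RNA polymerase transcribed barcoded ribozyme variants on them in situ, and a hybridised Cy3 probe tracked these at 37 °C. After glucosamine-6-phosphate (40 μM to 10 mM) in HEPES/KCl/Mg(OAc)2 buffer was flowed in, tiles were imaged over ~14 h. Signals normalised to baseline and to non-cleaving reference variants were reduced to per-tile medians and fit to one- or two-exponential decays to obtain kobs. kcat and KM were derived through weighted Michaelis–Menten fits across concentrations.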

In data set [2] the parent is B1. Description: KM; higher = weaker cofactor use; RNA array. Put shortly:
as §1

Variants of B1 are the subject of data set [3]. The data set is described as follows: self-cleavage kobs at 40 uM GlcN6P; higher = faster cleavage; RNA array. The method in brief:
as §1

Data set [4] covers variants of B1. The data set is described as follows: self-cleavage kobs at 160 uM GlcN6P; higher = faster cleavage; RNA array. The method in brief: as §1
The variants in data set [5] derive from B1. Description: self-cleavage kobs at 640 uM GlcN6P; higher = faster cleavage; RNA array. The method in brief:
as §1

Variants of B1 are the subject of data set [6]. The data set is described as follows: self-cleavage kobs at 2500 uM GlcN6P; higher = faster cleavage; RNA array. Put shortly: as §1
Data set [7] covers variants of B1. The data set is described as follows: self-cleavage kobs at 10000 uM GlcN6P; higher = faster cleavage; RNA array. Put shortly:
as §1

On to A12G C70U, for which the kcat in the data set with glucosamine-6-phosphate [1] is 0.00188 ± 0.00036 s⁻¹. Further, the KM with glucosamine-6-phosphate [2] came to 4460 ± 1400 µM. For the same variant, the “self-cleavage kobs at 40 uM GlcN6P” value with glucosamine-6-phosphate [3] is 1.71e-05 ± 6.8e-06 s⁻¹. Also, the “self-cleavage kobs at 160 uM GlcN6P” value in the data set with glucosamine-6-phosphate [4] worked out at 7.66e-05 ± 6.8e-06 s⁻¹. The “self-cleavage kobs at 640 uM GlcN6P” value with glucosamine-6-phosphate [5] worked out at 0.00025 ± 2.2e-05 s⁻¹. For the same variant, in the data set with glucosamine-6-phosphate [6], the “self-cleavage kobs at 2500 uM GlcN6P” value came to 0.00055 ± 4.3e-05 s⁻¹. For the same variant, the “self-cleavage kobs at 10000 uM GlcN6P” value with glucosamine-6-phosphate [7] was found to be 0.00139 ± 7.5e-05 s⁻¹.

On to A48C G66U, for which, in the data set with glucosamine-6-phosphate [1], the kcat worked out at 2.77e-05 ± 2.1e-07 s⁻¹. Besides, in the data set with glucosamine-6-phosphate [2], the KM turned out to be 2750 ± 61 µM.

In the case of C50U U69G, in the data set with glucosamine-6-phosphate [1], the kcat turned out to be 2.82e-05 ± 7.6e-06 s⁻¹. For the same variant, in the data set with glucosamine-6-phosphate [4], the “self-cleavage kobs at 160 uM GlcN6P” value is 3.94e-05 ± 1.2e-05 s⁻¹. Further, the “self-cleavage kobs at 2500 uM GlcN6P” value with glucosamine-6-phosphate [6] worked out at 3.39e-05 ± 1.4e-05 s⁻¹.

On to C8A G35U, for which the kcat with glucosamine-6-phosphate [1] is less than 1e-05 s⁻¹. For the same variant, in the data set with glucosamine-6-phosphate [6], the “self-cleavage kobs at 2500 uM GlcN6P” value is less than 1e-05 s⁻¹. Besides, the “self-cleavage kobs at 10000 uM GlcN6P” value with glucosamine-6-phosphate [7] is less than 1e-05 s⁻¹.

In the case of C10G U54A, in the data set with glucosamine-6-phosphate [1], the kcat was less than 1e-05 s⁻¹. Also, the “self-cleavage kobs at 40 uM GlcN6P” value with glucosamine-6-phosphate [3] was less than 1e-05 s⁻¹.

Take A6G A14U: in the data set with glucosamine-6-phosphate [1], the kcat was determined as 0.000128 ± 4.9e-06 s⁻¹. Moreover, the KM with glucosamine-6-phosphate [2] came to 1370 ± 180 µM. Further, the “self-cleavage kobs at 640 uM GlcN6P” value in the data set with glucosamine-6-phosphate [5] was 3.84e-05 ± 1e-05 s⁻¹. For the same variant, the “self-cleavage kobs at 2500 uM GlcN6P” value with glucosamine-6-phosphate [6] is 8.77e-05 ± 1.3e-05 s⁻¹. Also, the “self-cleavage kobs at 10000 uM GlcN6P” value with glucosamine-6-phosphate [7] amounted to 0.000111 ± 1.1e-05 s⁻¹.

G40U C67A: in the data set with glucosamine-6-phosphate [1], the turnover number (kcat) worked out at 0.000158 ± 6.3e-05 s⁻¹. Also, in the data set with glucosamine-6-phosphate [5], the “self-cleavage kobs at 640 uM GlcN6P” value was determined as 7.75e-05 ± 1.4e-05 s⁻¹. Besides, the “self-cleavage kobs at 2500 uM GlcN6P” value with glucosamine-6-phosphate [6] amounted to 9.78e-05 ± 1.7e-05 s⁻¹. For the same variant, the “self-cleavage kobs at 10000 uM GlcN6P” value in the data set with glucosamine-6-phosphate [7] came to 0.000218 ± 5.5e-05 s⁻¹.

For the variant C16G U54C, in the data set with glucosamine-6-phosphate [1], the kcat was 0.00528 ± 0.0015 s⁻¹. Further, the KM with glucosamine-6-phosphate [2] was 3350 ± 1400 µM. Further, in the data set with glucosamine-6-phosphate [3], the “self-cleavage kobs at 40 uM GlcN6P” value is 9.28e-05 ± 1.6e-05 s⁻¹. In addition, the “self-cleavage kobs at 160 uM GlcN6P” value in the data set with glucosamine-6-phosphate [4] is 0.000157 ± 5.6e-05 s⁻¹. The “self-cleavage kobs at 640 uM GlcN6P” value with glucosamine-6-phosphate [5] stood at 0.000745 ± 0.00019 s⁻¹. Further, in the data set with glucosamine-6-phosphate [6], the “self-cleavage kobs at 2500 uM GlcN6P” value was found to be 0.00247 ± 0.00064 s⁻¹. Further, the “self-cleavage kobs at 10000 uM GlcN6P” value with glucosamine-6-phosphate [7] worked out at 0.00397 ± 0.00058 s⁻¹.

As to U30A C50A A52G, in the data set with glucosamine-6-phosphate [1], the kcat was less than 1e-05 s⁻¹. Further, the KM with glucosamine-6-phosphate [2] stood at 39.4 ± 20 µM. For the same variant, the “self-cleavage kobs at 640 uM GlcN6P” value in the data set with glucosamine-6-phosphate [5] is less than 1e-05 s⁻¹. Also, the “self-cleavage kobs at 10000 uM GlcN6P” value in the data set with glucosamine-6-phosphate [7] is less than 1e-05 s⁻¹.

For A53G U56C, in the data set with glucosamine-6-phosphate [1], the catalytic constant (kcat) turned out to be 0.00882 ± 0.0023 s⁻¹. The KM with glucosamine-6-phosphate [2] came out at 2730 ± 950 µM. Besides, the “self-cleavage kobs at 40 uM GlcN6P” value with glucosamine-6-phosphate [3] stood at 0.000169 ± 2.5e-05 s⁻¹. Besides, the “self-cleavage kobs at 160 uM GlcN6P” value in the data set with glucosamine-6-phosphate [4] is 0.000447 ± 0.00011 s⁻¹. In addition, the “self-cleavage kobs at 640 uM GlcN6P” value with glucosamine-6-phosphate [5] turned out to be 0.00135 ± 0.00025 s⁻¹. Besides, the “self-cleavage kobs at 2500 uM GlcN6P” value in the data set with glucosamine-6-phosphate [6] was determined as 0.00428 ± 0.001 s⁻¹. In addition, the “self-cleavage kobs at 10000 uM GlcN6P” value in the data set with glucosamine-6-phosphate [7] came out at 0.0073 ± 0.0011 s⁻¹.

In the case of C11A C61G, the kcat with glucosamine-6-phosphate [1] came out at 1.14e-05 ± 3.7e-06 s⁻¹. The “self-cleavage kobs at 40 uM GlcN6P” value with glucosamine-6-phosphate [3] is less than 1e-05 s⁻¹.

As for U54A U69G, the kcat with glucosamine-6-phosphate [1] stood at 6.78e-05 ± 1.1e-05 s⁻¹. In the data set with glucosamine-6-phosphate [4], the “self-cleavage kobs at 160 uM GlcN6P” value amounted to 6.31e-05 ± 2.8e-05 s⁻¹. Besides, in the data set with glucosamine-6-phosphate [5], the “self-cleavage kobs at 640 uM GlcN6P” value was found to be 9.07e-05 ± 1.8e-05 s⁻¹. Moreover, in the data set with glucosamine-6-phosphate [6], the “self-cleavage kobs at 2500 uM GlcN6P” value worked out at 9.01e-05 ± 1.6e-05 s⁻¹. Besides, in the data set with glucosamine-6-phosphate [7], the “self-cleavage kobs at 10000 uM GlcN6P” value was 5.62e-05 ± 8.3e-06 s⁻¹.

For the variant A39G U46C, the kcat with glucosamine-6-phosphate [1] is 0.00815 ± 0.0014 s⁻¹. In the data set with glucosamine-6-phosphate [2], the KM was determined as 946 ± 240 µM. In addition, the “self-cleavage kobs at 40 uM GlcN6P” value in the data set with glucosamine-6-phosphate [3] turned out to be 0.000292 ± 6.4e-05 s⁻¹. Besides, the “self-cleavage kobs at 160 uM GlcN6P” value with glucosamine-6-phosphate [4] was determined as 0.00135 ± 0.00039 s⁻¹. Also, the “self-cleavage kobs at 640 uM GlcN6P” value with glucosamine-6-phosphate [5] worked out at 0.00369 ± 0.00073 s⁻¹. Moreover, the “self-cleavage kobs at 2500 uM GlcN6P” value in the data set with glucosamine-6-phosphate [6] stood at 0.0069 ± 0.0015 s⁻¹. Also, the “self-cleavage kobs at 10000 uM GlcN6P” value with glucosamine-6-phosphate [7] turned out to be 0.00601 ± 0.0018 s⁻¹.

In the case of G40C G41A, the kcat with glucosamine-6-phosphate [1] was 0.000118 ± 1.4e-05 s⁻¹. Moreover, the KM with glucosamine-6-phosphate [2] stood at 667 ± 260 µM. Moreover, the “self-cleavage kobs at 640 uM GlcN6P” value with glucosamine-6-phosphate [5] came to 5.69e-05 ± 8.6e-06 s⁻¹. Also, in the data set with glucosamine-6-phosphate [6], the “self-cleavage kobs at 2500 uM GlcN6P” value was 0.000104 ± 1.1e-05 s⁻¹. Besides, the “self-cleavage kobs at 10000 uM GlcN6P” value in the data set with glucosamine-6-phosphate [7] came to 0.000101 ± 1.3e-05 s⁻¹.

On to C16U G40U, for which the kcat with glucosamine-6-phosphate [1] worked out at 0.00189 ± 0.00089 s⁻¹. For the same variant, in the data set with glucosamine-6-phosphate [3], the “self-cleavage kobs at 40 uM GlcN6P” value was 0.000134 ± 2e-05 s⁻¹. Moreover, the “self-cleavage kobs at 160 uM GlcN6P” value with glucosamine-6-phosphate [4] was 0.000209 ± 5e-05 s⁻¹. Besides, the “self-cleavage kobs at 640 uM GlcN6P” value in the data set with glucosamine-6-phosphate [5] came to 0.00095 ± 0.00016 s⁻¹. In addition, the “self-cleavage kobs at 2500 uM GlcN6P” value with glucosamine-6-phosphate [6] worked out at 0.00106 ± 0.00024 s⁻¹. In the data set with glucosamine-6-phosphate [7], the “self-cleavage kobs at 10000 uM GlcN6P” value amounted to 0.00317 ± 0.0006 s⁻¹.

Turning to U31C C50G, the kcat in the data set with glucosamine-6-phosphate [1] is 6.62e-05 ± 2.8e-05 s⁻¹. Further, in the data set with glucosamine-6-phosphate [3], the “self-cleavage kobs at 40 uM GlcN6P” value amounted to 2.9e-05 ± 1.3e-05 s⁻¹. In the data set with glucosamine-6-phosphate [4], the “self-cleavage kobs at 160 uM GlcN6P” value turned out to be 0.000114 ± 1.7e-05 s⁻¹. Further, in the data set with glucosamine-6-phosphate [5], the “self-cleavage kobs at 640 uM GlcN6P” value worked out at 0.000104 ± 2e-05 s⁻¹. The “self-cleavage kobs at 2500 uM GlcN6P” value in the data set with glucosamine-6-phosphate [6] worked out at 8.9e-05 ± 1.3e-05 s⁻¹.

As a reminder, the kcat is the number of substrate molecules converted per active site and unit of time at saturation. Usually KM stands for the concentration of substrate that gives half-maximal velocity.
